Data on 1 molecule can be found in paper PMC9505750.

Details in all cases: remark: other sources report otherwise
Assay [1] addresses full-length wild-type APOBEC3G (human), Q9HC16. Nature of the assay: SEC-SAXS; ligand-free A3Gfl; SEC (Superdex 200 Increase 5/150 GL) with co-flow SAXS, 25 °C, 2.5 mg/mL A3Gfl loaded (about 1.3 mg/mL after SEC), 50 mM phosphate pH 6.0, 200 mM NaCl, 2 mM β-ME, 5% glycerol, 200 µM Na2-EDTA; species separated by SVD/EFA and Gaussian decomposition. On the technique in general: SEC sorts molecules by how far they enter the pores of the column.

For assay [2] the target is unchanged. Nature of the assay: SEC-SAXS; A3Gfl 2.5 mg/mL with the 40-mer ssDNA CCdZ-T30-oligo at a 1 to 2 molar ratio; SEC-SAXS, 25 °C, 50 mM phosphate pH 6.0, 200 mM NaCl, 2 mM β-ME, 5% glycerol, 200 µM Na2-EDTA; Gaussian decomposition.
The target is the same in assay [3]. The experiment in a line: SEC-SAXS; ligand-free A3Gfl; SEC (Superdex 200 Increase 5/150 GL) with co-flow SAXS, 25 °C, 2.5 mg/mL A3Gfl loaded (about 1.3 mg/mL after SEC), 50 mM phosphate pH 6.0, 200 mM NaCl, 2 mM β-ME, 5% glycerol, 200 µM Na2-EDTA; species separated by SVD/EFA and Gaussian decomposition. The source holds these as a separate data set.

As usually defined, the stoichiometry N is a count of units in the complex or per binding partner.

B1: full-length wild-type APOBEC3G, Q9HC16 1-384 (enzyme)
chain: MKPHFRNTVERMYRDTFSYNFYNRPILSRRNTVWLCYEVKTKGPSRPPLDAKIFRGQVYSELKYHPEMRFFHWFSKWRKLHRDQEYEVTWYISWSPCTKCTRDMATFLAEDPKVTLTIFVARLYYFWDPDYQEALRSLCQKRDGPRATMKIMNYDEFQHCWSKFVYSQRELFEPWNNLPKYYILLHIMLGEILRHSMDPPTFTFNFNNEPWVRGRHETYLCYEVERMHNDTWVLLNQRRGFLCNQAPHKHGFLEGRHAELCFLDVIPFWKLDLDQDYRVTCFTSWSPCFSCAQEMAKFISKNKHVSLCIFTARIYDDQGRCQEGLRTLAEAGAKISIMTYSEFKHCWDTFVDHQGCPFQPWDGLDEHSQDLSGRLRAILQNQEN
Turning to B1, the stoichiometry N is 2 in assay [1], 4 in assay [2] and 4 in assay [3].
